T1: CLuc–CML24 (Arabidopsis thaliana, UniProt P25070 1-161)
T1 sequence: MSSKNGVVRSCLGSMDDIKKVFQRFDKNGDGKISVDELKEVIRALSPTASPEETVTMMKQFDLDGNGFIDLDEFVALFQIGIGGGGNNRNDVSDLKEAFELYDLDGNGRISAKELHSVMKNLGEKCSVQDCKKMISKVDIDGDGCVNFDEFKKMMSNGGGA

T2: CLuc–CML13 (Arabidopsis thaliana, UniProt Q94AZ4 1-148)
T2 sequence: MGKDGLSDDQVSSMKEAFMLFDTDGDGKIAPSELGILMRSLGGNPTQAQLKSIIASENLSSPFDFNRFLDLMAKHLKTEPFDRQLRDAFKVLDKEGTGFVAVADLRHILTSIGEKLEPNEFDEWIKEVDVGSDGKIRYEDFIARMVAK

T3: CLuc–CML14 (Arabidopsis thaliana, UniProt Q8VZ50 1-148)
T3 sequence: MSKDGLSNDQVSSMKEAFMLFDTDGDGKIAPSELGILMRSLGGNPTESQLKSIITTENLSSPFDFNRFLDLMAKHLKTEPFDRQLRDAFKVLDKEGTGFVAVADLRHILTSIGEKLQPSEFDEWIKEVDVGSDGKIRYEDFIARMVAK

T4: dansylated CML14 (Arabidopsis thaliana, UniProt Q8VZ50 1-148, covalent dansyl label (site not stated))
T4 sequence: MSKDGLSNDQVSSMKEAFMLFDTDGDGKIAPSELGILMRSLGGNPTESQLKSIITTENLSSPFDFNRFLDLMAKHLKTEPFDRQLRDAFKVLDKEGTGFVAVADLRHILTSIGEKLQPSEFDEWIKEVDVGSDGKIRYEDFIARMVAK

T5: dansylated CML13 (Arabidopsis thaliana, UniProt Q94AZ4 1-148, covalent dansyl label (site not stated))
T5 sequence: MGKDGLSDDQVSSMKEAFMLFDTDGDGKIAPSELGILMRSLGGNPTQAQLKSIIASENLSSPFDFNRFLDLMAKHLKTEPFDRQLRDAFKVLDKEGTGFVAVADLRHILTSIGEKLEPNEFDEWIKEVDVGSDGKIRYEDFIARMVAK

B1: ATM2-IQ1 synthetic peptide (peptide)
peptide: LQGIVGLQKHFRGHLSRAYFQNM
B2: myosin ATM1 neck region (residues 848–943), NLuc fusion (domain or fragment)
chain: RTLHGILRVQSSFRGYQARCLLKELKRGISILQSFVRGEKIRKEFAELRRRHKAAATIQSQVKSKIARIQYKGIADASVVIQSAIRGWLVRRCSGD
B3: myosin VIII-A neck region (residues 828–930), NLuc fusion (domain or fragment)
chain: RNRTLHGILRLQSYFRGHQARCRLKELKTGITILQSFVRGEKMRKEYTELLQRHRASAAIQSHVKRRIASQQYKATVDASAVIQSAIRGELVRRCAGDIGWLS
B4: myosin ATM2 neck region (residues 878–967), NLuc fusion (domain or fragment)
chain: RKKVLQGIVGLQKHFRGHLSRAYFQNMRKVTLVLQSYIRGENARRLFDTEAKFHADSVSEASTDELSAVIHLQSAVRGWLARKHFNSMQR
B5: ATM1-IQ1 synthetic peptide (peptide)
peptide: LHGILRVQSSFRGYQARCLLKEL

How the values were obtained:
dansylated CaM = dansylated CaM (petunia, UniProt P62199 1-149, covalent dansyl label (site not stated)); experiment: steady-state dansyl fluorescence spectroscopy
CLuc–CML24 = molecular target: T1, CLuc–CML24; experiment: split reporter
CLuc–CML13 = molecular target: T2, CLuc–CML13; experiment: split reporter
CLuc–CML14 = molecular target: T3, CLuc–CML14; experiment: split reporter
dansylated CML14 = molecular target: T4, dansylated CML14; experiment: steady-state dansyl fluorescence spectroscopy
dansylated CML13 = molecular target: T5, dansylated CML13; experiment: steady-state dansyl fluorescence spectroscopy

Binder | binding result (dansylated CaM) | fold signal above background (CML42 control) (CLuc–CML24) | fold signal above the CML42 control (CLuc–CML13) | fold signal above the CML42 control (CLuc–CML14) | binding result (dansylated CML14) | binding result (dansylated CML13)
B1 | binds | – | – | – | – | –
B2 | – | ~2 fold | ~35 fold | ~35 fold | – | –
B3 | – | ~2 fold | ~200 fold | ~200 fold | – | –
B4 | – | ~2 fold | – | – | – | –
B5 | binds | – | – | – | binds | binds

Reference: paper PMC11272076 (Journal of Experimental Botany, 2024)
